According to patent publication US12630600B2 (MEDIMMUNE LIMITED, priority 2022, dated 2026):
Starred links: 1 amine or outer side, 2 acyl side, 3 side chain; linkers in the order of their positions; H or OH if unused. Non-standard residues stand in square brackets, D forms with d. Groups on a side chain read outwards from the residue. No end group written: not given here. *: point of attachment. C20 diacid = O=C(O)CCCCCCCCCCCCCCCCCCC(=O)*; C18 diacid = O=C(O)CCCCCCCCCCCCCCCCC(=O)*; γGlu = O=C(O)[C@H](CCC(=O)[*:2])N[*:1]; αMeF = C[C@](N)(Cc1ccccc1)C(=O)O; AEEA = NCCOCCOCC(=O)O; Aib = CC(C)(N)C(=O)O

How the values were obtained:
human GLP-1 receptor = human GLP-1 receptor (human, UniProt P43220); assay: cell-based or functional assay
human glucagon receptor = human glucagon receptor (human, UniProt P47871); assay: cell-based or functional assay

cAMP production EC50 (human GLP-1 receptor)	cAMP production EC50 (human glucagon receptor)	Binder
0.0573 nM	0.0578 nM	H[Aib]QGTFTSDVSK[αMeF]LDKK([AEEA-AEEA-γGlu-γGlu-C18 diacid])RAQDFVRWLLE[Aib]G-OH (N-terminus assumed; SMILES CC(C)C[C@H](NC(=O)[C@H](Cc1c[nH]c2ccccc12)NC(=O)[C@H](CCCNC(=N)N)NC(=O)[C@@H](NC(=O)[C@H](Cc1ccccc1)NC(=O)[C@H](CC(=O)O)NC(=O)[C@H](CCC(N)=O)NC(=O)[C@H](C)NC(=O)[C@H](CCCNC(=N)N)NC(=O)[C@H](CCCCNC(=O)COCCOCCNC(=O)COCCOCCNC(=O)CC[C@H](NC(=O)CC[C@H](NC(=O)CCCCCCCCCCCCCCCCC(=O)O)C(=O)O)C(=O)O)NC(=O)[C@H](CCCCN)NC(=O)[C@H](CC(=O)O)NC(=O)[C@H](CC(C)C)NC(=O)[C@](C)(Cc1ccccc1)NC(=O)[C@H](CCCCN)NC(=O)[C@H](CO)NC(=O)[C@@H](NC(=O)[C@H](CC(=O)O)NC(=O)[C@H](CO)NC(=O)[C@@H](NC(=O)[C@H](Cc1ccccc1)NC(=O)[C@@H](NC(=O)CNC(=O)[C@H](CCC(N)=O)NC(=O)C(C)(C)NC(=O)[C@@H](N)Cc1c[nH]cn1)[C@@H](C)O)[C@@H](C)O)C(C)C)C(C)C)C(=O)N[C@@H](CC(C)C)C(=O)N[C@@H](CCC(=O)O)C(=O)NC(C)(C)C(=O)NCC(=O)O) [Peptide 450]
0.127 nM	0.114 nM	H[Aib]QGTFTSDVSK[αMeF]LDKK([AEEA-AEEA-γGlu-γGlu-C20 diacid])RAQDFVRWLL[Aib]E-NH2 (N-terminus assumed; SMILES CC(C)C[C@H](NC(=O)[C@H](Cc1c[nH]c2ccccc12)NC(=O)[C@H](CCCNC(=N)N)NC(=O)[C@@H](NC(=O)[C@H](Cc1ccccc1)NC(=O)[C@H](CC(=O)O)NC(=O)[C@H](CCC(N)=O)NC(=O)[C@H](C)NC(=O)[C@H](CCCNC(=N)N)NC(=O)[C@H](CCCCNC(=O)COCCOCCNC(=O)COCCOCCNC(=O)CC[C@H](NC(=O)CC[C@H](NC(=O)CCCCCCCCCCCCCCCCCCC(=O)O)C(=O)O)C(=O)O)NC(=O)[C@H](CCCCN)NC(=O)[C@H](CC(=O)O)NC(=O)[C@H](CC(C)C)NC(=O)[C@](C)(Cc1ccccc1)NC(=O)[C@H](CCCCN)NC(=O)[C@H](CO)NC(=O)[C@@H](NC(=O)[C@H](CC(=O)O)NC(=O)[C@H](CO)NC(=O)[C@@H](NC(=O)[C@H](Cc1ccccc1)NC(=O)[C@@H](NC(=O)CNC(=O)[C@H](CCC(N)=O)NC(=O)C(C)(C)NC(=O)[C@@H](N)Cc1c[nH]cn1)[C@@H](C)O)[C@@H](C)O)C(C)C)C(C)C)C(=O)N[C@@H](CC(C)C)C(=O)NC(C)(C)C(=O)N[C@@H](CCC(=O)O)C(N)=O) [Peptide 455]
0.895 nM	0.503 nM	H[Aib]QGTFTSDVSK[αMeF]LDKK([AEEA-AEEA-γGlu-C20 diacid])RARDFVLWLL[Aib]E-NH2 (N-terminus assumed; SMILES CC(C)C[C@H](NC(=O)[C@H](Cc1c[nH]c2ccccc12)NC(=O)[C@H](CC(C)C)NC(=O)[C@@H](NC(=O)[C@H](Cc1ccccc1)NC(=O)[C@H](CC(=O)O)NC(=O)[C@H](CCCNC(=N)N)NC(=O)[C@H](C)NC(=O)[C@H](CCCNC(=N)N)NC(=O)[C@H](CCCCNC(=O)COCCOCCNC(=O)COCCOCCNC(=O)CC[C@H](NC(=O)CCCCCCCCCCCCCCCCCCC(=O)O)C(=O)O)NC(=O)[C@H](CCCCN)NC(=O)[C@H](CC(=O)O)NC(=O)[C@H](CC(C)C)NC(=O)[C@](C)(Cc1ccccc1)NC(=O)[C@H](CCCCN)NC(=O)[C@H](CO)NC(=O)[C@@H](NC(=O)[C@H](CC(=O)O)NC(=O)[C@H](CO)NC(=O)[C@@H](NC(=O)[C@H](Cc1ccccc1)NC(=O)[C@@H](NC(=O)CNC(=O)[C@H](CCC(N)=O)NC(=O)C(C)(C)NC(=O)[C@@H](N)Cc1c[nH]cn1)[C@@H](C)O)[C@@H](C)O)C(C)C)C(C)C)C(=O)N[C@@H](CC(C)C)C(=O)NC(C)(C)C(=O)N[C@@H](CCC(=O)O)C(N)=O) [Peptide 451]
0.173 nM	0.274 nM	H[Aib]QGTFTSDVSK[αMeF]LDKK([AEEA-AEEA-γGlu-C20 diacid])RAQDFVRWLEA[Aib]G-NH2 (N-terminus assumed; SMILES CC(C)C[C@H](NC(=O)[C@H](Cc1c[nH]c2ccccc12)NC(=O)[C@H](CCCNC(=N)N)NC(=O)[C@@H](NC(=O)[C@H](Cc1ccccc1)NC(=O)[C@H](CC(=O)O)NC(=O)[C@H](CCC(N)=O)NC(=O)[C@H](C)NC(=O)[C@H](CCCNC(=N)N)NC(=O)[C@H](CCCCNC(=O)COCCOCCNC(=O)COCCOCCNC(=O)CC[C@H](NC(=O)CCCCCCCCCCCCCCCCCCC(=O)O)C(=O)O)NC(=O)[C@H](CCCCN)NC(=O)[C@H](CC(=O)O)NC(=O)[C@H](CC(C)C)NC(=O)[C@](C)(Cc1ccccc1)NC(=O)[C@H](CCCCN)NC(=O)[C@H](CO)NC(=O)[C@@H](NC(=O)[C@H](CC(=O)O)NC(=O)[C@H](CO)NC(=O)[C@@H](NC(=O)[C@H](Cc1ccccc1)NC(=O)[C@@H](NC(=O)CNC(=O)[C@H](CCC(N)=O)NC(=O)C(C)(C)NC(=O)[C@@H](N)Cc1c[nH]cn1)[C@@H](C)O)[C@@H](C)O)C(C)C)C(C)C)C(=O)N[C@@H](CCC(=O)O)C(=O)N[C@@H](C)C(=O)NC(C)(C)C(=O)NCC(N)=O) [Peptide 454]
0.17 nM	0.162 nM	H[Aib]QGTFTSDVSK[αMeF]LDKK([AEEA-AEEA-γGlu-C20 diacid])RAQDFVRWLLE[Aib]G-NH2 [Peptide 453]
0.495 nM	0.151 nM	H[Aib]QGTFTSDVSK[αMeF]LDKK([AEEA-AEEA-γGlu-C20 diacid])RALDFVRWLL[Aib]E-NH2 (N-terminus assumed; SMILES CC(C)C[C@H](NC(=O)[C@H](C)NC(=O)[C@H](CCCNC(=N)N)NC(=O)[C@H](CCCCNC(=O)COCCOCCNC(=O)COCCOCCNC(=O)CC[C@H](NC(=O)CCCCCCCCCCCCCCCCCCC(=O)O)C(=O)O)NC(=O)[C@H](CCCCN)NC(=O)[C@H](CC(=O)O)NC(=O)[C@H](CC(C)C)NC(=O)[C@](C)(Cc1ccccc1)NC(=O)[C@H](CCCCN)NC(=O)[C@H](CO)NC(=O)[C@@H](NC(=O)[C@H](CC(=O)O)NC(=O)[C@H](CO)NC(=O)[C@@H](NC(=O)[C@H](Cc1ccccc1)NC(=O)[C@@H](NC(=O)CNC(=O)[C@H](CCC(N)=O)NC(=O)C(C)(C)NC(=O)[C@@H](N)Cc1c[nH]cn1)[C@@H](C)O)[C@@H](C)O)C(C)C)C(=O)N[C@@H](CC(=O)O)C(=O)N[C@@H](Cc1ccccc1)C(=O)N[C@H](C(=O)N[C@@H](CCCNC(=N)N)C(=O)N[C@@H](Cc1c[nH]c2ccccc12)C(=O)N[C@@H](CC(C)C)C(=O)N[C@@H](CC(C)C)C(=O)NC(C)(C)C(=O)N[C@@H](CCC(=O)O)C(N)=O)C(C)C) [Peptide 452]
